Results published in patent US20220298260A1 (MYTHIC THERAPEUTICS, published 2022).

Tests used:
[1] = target: T1, FOLR1 on NIH:OVCAR-3 cells (human, UniProt P15328 25-233); assay: flow cytometry on NIH:OVCAR-3 cells, Alexa Fluor 488 anti-human IgG
T1 construct: Endogenous FOLR1 of NIH:OVCAR-3 (FOLR1+) cells; also called cell surface FOLR1
Description: Binding affinity of selected anti-FOLR1 pH engineered antibody variants from Examples 9 and 11 were measured on NIH:OVCAR-3 cells. 100,000 cells per well were resuspended in […] FC buffer in a 96 well deep well plate. Mirvetuximab and pH engineered antibody variants were serially diluted at a 1:3 dilution. 100 µL of diluted antibody was added to each well with final concentration ranging from ˜100 nM to 0.024 pM and incubated for 2 hours at 4° C. Post incubation, the cells were spun at 2000 rpm for 2 min and supernatant was discarded. Cells were washed twice with 500 μL of ice-cold FC buffer and resuspended with 100 μL of FC buffer. The cells were then transferred from the deep well plate to 96 well round bottom plate, spun at 2000 rpm for 2 min and incubated with 100 μL of 10 μg/mL Alexa Fluor 488 conjugated goat anti-human IgG secondary antibody (ThermoFisher Scientific, A11013) for 30 min. Post incubation, cells were washed with FC buffer and resuspended in 100 μL, of FC buffer to read on a BD Accuri C6 flow cytometer. […] MYT0603 and MYT1154 show high affinity binding to cell surface FOLR1 on NIH:OVCAR-3 cells in the pM-nM range confirming that variants created through pH engineering can retain functionally appropriate affinities as compared to their corresponding starting ABPCs (e.g., mirvetuximab).

[2] = target: T2, FOLR1 (R&D Systems, Cat #5646-FR) (human, UniProt P15328 25-233); assay: BLI, IgG on anti-human Fc sensor
T2 construct: Bought soluble protein; also called Folate Receptor 1
T2 sequence (P15328 25-233 limits assumed): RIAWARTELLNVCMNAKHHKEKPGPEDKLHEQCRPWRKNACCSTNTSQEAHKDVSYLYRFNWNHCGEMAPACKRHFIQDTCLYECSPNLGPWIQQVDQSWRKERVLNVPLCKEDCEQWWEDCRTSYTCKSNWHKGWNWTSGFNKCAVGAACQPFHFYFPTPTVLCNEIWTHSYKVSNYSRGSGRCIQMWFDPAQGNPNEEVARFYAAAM

T1 sequence (P15328 25-233): as the sequence (P15328 25-233 limits assumed) above

Binder	IC50 [1] [pM]	binding result [2]
MYT1154 (antibody, V domains shown, IgG) VH: QVQLVQSGAEVVKPGASVKISCKHSGHTFTGYFMNWVKQSPGQSLEWIGRIHPYDGDTHYNQKFQGKATLTVDKSSNTAHMELLSLTSEDFAVYYCTRYDGSRAMDYWGQGTTVTVSS VL: DIVLTQSPLSLAVSLGQPAIISCKASQSVSFAGTSLMHWYHQKPGQQPRLLIYRASNLEAGVPDRFSGSGSKTDFTLTISPVEAEDAATYYCQQSREYPYTFGGGTKLEIK	396	
MYT0603 (antibody, V domains shown, IgG) VH: QVQLVQSGAEVVKPGASVKISCKASGYTHTGYFMNWVKQSPGQSLEWIGRIHPYDGDTFYNQKFQGKATLTVDKSSNTAHMELLSLTSEDFAVYYCTRYDGSRAMDYWGQGTTVTVSS VL: DIVLTQSPLSLAVSLGQPAIISCKASQSVSFAGTSLMHWYHQKPGQQPRLLIYRASNLEAGVPDRFSGSGSKTDFTLTISPVEAEDAATYYCQQSREYPYTFGGGTKLEIK	650	

Further lines, results first:

IC50 [1] [pM]	binding result [2]	Binder
250		mirvetuximab (antibody, V domains shown, IgG expressed in Expi293; the entries are labelled heavy/light chain of the IgG but hold only the variable domains; also called MYT0596) VH: QVQLVQSGAEVVKPGASVKISCKASGYTFTGYFMNWVKQSPGQSLEWIGRIHPYDGDTFYNQKFQGKATLTVDKSSNTAHMELLSLTSEDFAVYYCTRYDGSRAMDYWGQGTTVTVSS VL: DIVLTQSPLSLAVSLGQPAIISCKASQSVSFAGTSLMHWYHQKPGQQPRLLIYRASNLEAGVPDRFSGSGSKTDFTLTISPVEAEDAATYYCQQSREYPYTFGGGTKLEIK
	no binding (tested: 50 nM)	MYT2219 (antibody, V domains shown, IgG) VH: EVQLVESGGGVVQPGRSLRLSCSASGFTFSGYGLSWVRQAPGKGLEWVAMISSGGSYTYYADSVKGRFAISRDNAKNTLFLQMDSLRPEDTGVYFCARHGDDPHWFAYWGQGTPVTVSS VL: DIQLTQSPSSLSASVGDRVTITCSVSSSISSNNLHWYQQKPGKAPKPWIYGTSNLASGVPSRFSGSGSGTDYTFTISSLQPEDIATYYCQQWSSYPYMYTFGQGTKVEIK
	no binding (tested: 50 nM)	MYT2221 (antibody, V domains shown, IgG) VH: EVQLVESGGGVVQPGRSLRLSCSASGFTFSGYGLSWVRQAPGKGLEWVAMISSGGSYTYYADSVKGRFAISRDNAKNTLFLQMDSLRPEDTGVYFCARHGDDPAWHAYWGQGTPVTVSS VL: DIQLTQSPSSLSASVGDRVTITCSVSSSISSNNLHWYQQKPGKAPKPWIYGTSNLASGVPSRFSGSGSGTDYTFTISSLQPEDIATYYCQQWSSYPYMYTFGQGTKVEIK
